Test results published in patent publication US8530245B2.

Target: Alexa Fluor-AChR conjugate (acetylcholine receptor purified from Torpedo californica electric organs, labelled with Alexa Fluor 488 or 647) (Torpedo californica) (UniProt P02710)
Assay: flow cytometry, CD19+ B cells stained with Alexa-AChR

## B cells (CD19+ or B220+) from CFA+AChR-immunized C57BL/6 mice with EAMG (spleen, lymph node, peripheral blood) (cells without a defined receptor)
  Percent of B cells that were AChR+ (lymph node, mean): 10.4%

## B cells from unimmunized naive C57BL/6 mice (cells without a defined receptor)
  Percent of B cells that were AChR+ (lymph node, mean): 5.6%
